Biological target: the molecule itself
Assay: crystal structure; hanging-drop vapor diffusion at 18 °C; 7 mg/mL protein in 40 mM Tris-HCl pH 7.0, 200 mM NaCl; precipitant 0.2 M sodium chloride, 0.1 M sodium acetate pH 4.0, 33% PEG 8000; four molecules in the asymmetric unit; FMN bound

B1: E. coli NfsB F70A/F108Y (enzyme)
chain: MDIISVALKRHSTKAFDASKKLTPEQAEQIKTLLQYSPSSTNSQPWHFIVASTEEGKARVAKSAAGNYVANERKMLDASHVVVFCAKTAMDDVWLKLVVDQEDADGRYATPEAKAANDKGRKFFADMHRKDLHDDAEWMAKQVYLNVGNFLLGVAALGLDAVPIEGFDAAILDAEFGLKEKGYTSLVVVPVGHHSVEDFNATLPKSRLPQNITLTEV
notes: Nitroreductase NfsB of Escherichia coli, 24 kDa subunit, with the substitutions F70A and F108Y; synthetic gene (Twist Bioscience) cloned into pET28a+; Homodimer with one FMN in each of two active sites at the dimer interface; also called mutNfsB; double-mutant F70A/F108Y
- stoichiometry N: 2

From article PMC11203732, “Structural Evaluation of a Nitroreductase Engineered for Improved Activation of the 5-Nitroimidazole PET Probe SN33623” (International Journal of Molecular Sciences, 2024)
